Experimental data as given in patent publication US20260021140A1 (SCG CELL THERAPY PTE, published 2026).
Positions count from the first letter of the chain named.

T1: HBV surface antigen (HBsAg), S20-28, genotypes B and C peptide on HLA-A*02:01 (human)
T1 peptide: FLLTKILTI

B1: A01 TCR (TCR, V domains shown)
Valpha: QQGEEDPQALSIQEGENATMNCSYKTSINNLQWYRQNSGRGLVHLILIRSNEREKHSGRLRVTLDTSKKSSSLLITASRAADTASYFCATDERDDMRFGAGTRLTVKP
Vbeta: GVIQSPRHEVTEMGQEVTLRCKPISGHDYLFWYRQTMMRGLELLIYFNNNVPIDDSGMPEDRFSAKMPNASFSTLKIQPSEPRDSAVYFCASSLNTEAFFGQGTRLTVV
B2: C01 TCR (TCR, V domains shown)
Valpha: QQGEEDPQALSIQEGENATMNCSYKTSINNLQWYRQNSGRGLVHLILIRSNEREKHSGRLRVTLDTSKKSSSLLITASRAADTASYFCATDAYGQNFVFGPGTRLSVLP
Vbeta: B1 Vbeta with S93G, L94S
B3: B01 TCR (HBV S20 TCR, modified, expressed on B01 TCR-T cells) (TCR, V domains shown)
V domain 1: SQELEQSPQSLIVQEGKNLTINCTSSKTLYGLYWYKQKYGEGLIFLMMLQKGGEEKSHEKITAKLDEKKQQSSLHITASQPSHAGIYLCGADTSTDKLIFGTGTRLQVFP
V domain 2: KAGVTQTPRYLIKTRGQQVTLSCSPISGHRSVSWYQQTPGQGLQFLFEYFSETQRNKGNFPGRFSGRQFSNSRSEMNVSTLELGDSALYLCASSHGGAYEQYFGPGTRLTVTE
B4: C01 TCR (HBV S20 TCR, modified, expressed on C01 TCR-T cells) (TCR, V domains shown)
V domain 1: SQQGEEDPQALSIQEGENATMNCSYKTSINNLQWYRQNSGRGLVHLILIRSNEREKHSGRLRVTLDTSKKSSSLLITASRAADTASYFCATDAYGQNFVFGPGTRLSVLP
V domain 2: GVIQSPRHEVTEMGQEVTLRCKPISGHDYLFWYRQTMMRGLELLIYFNNNVPIDDSGMPEDRFSAKMPNASFSTLKIQPSEPRDSAVYFCASGSNTEAFFGQGTRLTVVE
B5: B01 TCR (TCR, V domains shown)
Valpha: QELEQSPQSLIVQEGKNLTINCTSSKTLYGLYWYKQKYGEGLIFLMMLQKGGEEKSHEKITAKLDEKKQQSSLHITASQPSHAGIYLCGADTSTDKLIFGTGTRLQVFP
Vbeta: GVTQTPRYLIKTRGQQVTLSCSPISGHRSVSWYQQTPGQGLQFLFEYFSETQRNKGNFPGRFSGRQFSNSRSEMNVSTLELGDSALYLCASSHGGAYEQYFGPGTRLTVT

Legend:
[1] = biological target: T1, HBV surface antigen (HBsAg), S20-28, …; test: cytokine release
[2] = biological target: S20 epitope peptide presented by HLA-A*02:01 on HepG2 cells (Hepatitis B virus, genotypes A and D; …); test: cell-based or functional assay

Binder	binding result [1]	killing ratio on HepG2-LMS-LG cells (RTCA, 48 h, E:T 2:1, 1:2, 1:8) [2]
B1	recognises	
B2	recognises	
B3		> 60%
B4		> 60%
B5	recognises	
